Measured values: patent US20230220068A1 (CODIAK BIOSCIENCES, published 2023)

Molecular target: T1, PrX (human, UniProt Q9P2B2)
T1 construct: also called PTGFRN overexpressing exosomes
T1 sequence (scaffold on exosomes, looked up): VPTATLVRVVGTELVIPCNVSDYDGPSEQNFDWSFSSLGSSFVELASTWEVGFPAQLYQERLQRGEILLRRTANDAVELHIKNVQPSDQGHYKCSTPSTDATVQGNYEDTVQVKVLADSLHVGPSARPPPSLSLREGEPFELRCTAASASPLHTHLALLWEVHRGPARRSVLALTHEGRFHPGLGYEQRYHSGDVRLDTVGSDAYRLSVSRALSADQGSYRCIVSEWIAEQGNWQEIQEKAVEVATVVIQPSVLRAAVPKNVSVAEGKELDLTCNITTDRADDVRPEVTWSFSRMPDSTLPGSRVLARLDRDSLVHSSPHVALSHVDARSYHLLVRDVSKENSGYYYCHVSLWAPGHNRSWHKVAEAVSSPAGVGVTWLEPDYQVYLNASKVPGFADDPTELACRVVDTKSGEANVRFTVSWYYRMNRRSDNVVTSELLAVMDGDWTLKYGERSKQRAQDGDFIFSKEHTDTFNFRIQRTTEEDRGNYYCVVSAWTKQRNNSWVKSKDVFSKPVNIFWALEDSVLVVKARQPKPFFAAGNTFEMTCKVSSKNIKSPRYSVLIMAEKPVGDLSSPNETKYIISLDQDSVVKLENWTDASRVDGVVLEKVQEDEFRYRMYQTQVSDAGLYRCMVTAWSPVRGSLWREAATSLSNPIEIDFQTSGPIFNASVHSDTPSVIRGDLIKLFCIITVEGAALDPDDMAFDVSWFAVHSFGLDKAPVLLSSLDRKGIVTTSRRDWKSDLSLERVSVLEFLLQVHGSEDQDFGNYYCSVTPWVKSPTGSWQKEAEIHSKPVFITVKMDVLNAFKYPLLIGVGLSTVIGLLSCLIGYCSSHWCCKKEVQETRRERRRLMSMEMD
Test: Octet, exosomes on mouse SIRPα

binding result: no binding
B1: mouse SIRPα (receptor, UniProt P97797 32-373, looked up)
chain: KELKVTQPEKSVSVAAGDSTVLNCTLTSLLPVGPIRWYRGVGPSRLLIYSFAGEYVPRIRNVSDTTKRNNMDFSIRISNVTPADAGIYYCVKFQKGSSEPDTEIQSGGGTEVYVLAKPSPPEVSGPADRGIPDQKVNFTCKSHGFSPRNITLKWFKDGQELHPLETTVNPSGKNVSYNISSTVRVVLNSMDVNSKVICEVAHITLDRSPLRGIANLSNFIRVSPTVKVTQQSPTSMNQVNLTCRAERFYPEDLQLIWLENGNVSRNDTPKNLTKNTDGTYNYTSLFLVNSSAHREDVVFTCQVKHDQQPAITRNHTVLGFAHSSDQGSMQTFPDNNATHNWN
